Data from the supplement of paper PMC9112550, “Optimization of the antimicrobial peptide Bac7 by deep mutational scanning” (BMC Biology, 2022).

Test system: Escherichia coli TOP10
Experiment: shrunken log2 fold change of peptide-encoding DNA abundance (4.5 h post-induction vs induction); higher = less antimicrobial activity (less host growth inhibition)
Conditions: time post-induction: 4.5 h; library: site-saturation at positions 5, 18, 19, 20
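Note: peptides expressed intracellularly from a pBAD plasmid library in pooled LB shake-flask culture, induced with 0.3% L-arabinose, DNA abundance read by NGS, three biological replicates, DESeq2 with apeglm shrinkage.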

Sequence	shrunken log2 fold change
RRIRQRPPRLPRPRPRPEQHPRP	-0.0137
RRIRQRPPRLPRPRPRPERPPRP	0.223
RRIRQRPPRLPRPRPRPERTPRP	0.124
RRIRQRPPRLPRPRPRPERYPRP	-0.0565
RRIRQRPPRLPRPRPRPESTPRP	-0.0105
RRIRQRPPRLPRPRPRPETKPRP	0.0652
RRIRQRPPRLPRPRPRPEVHPRP	0.038
RRIRQRPPRLPRPRPRPEYIPRP	-0.00306
RRIRQRPPRLPRPRPRPEYVPRP	-0.0886
RRIRQRPPRLPRPRPRPFATPRP	0.275
RRIRQRPPRLPRPRPRPFCRPRP	-0.0325
RRIRQRPPRLPRPRPRPFDDPRP	-0.275
RRIRQRPPRLPRPRPRPFDWPRP	-0.0369
RRIRQRPPRLPRPRPRPFFEPRP	0.0893
RRIRQRPPRLPRPRPRPFGEPRP	0.287
RRIRQRPPRLPRPRPRPFHKPRP	-0.0921
RRIRQRPPRLPRPRPRPFHQPRP	-0.00804
RRIRQRPPRLPRPRPRPFHYPRP	-0.996
RRIRQRPPRLPRPRPRPFIDPRP	-0.0223
RRIRQRPPRLPRPRPRPFIRPRP	-0.00448
RRIRQRPPRLPRPRPRPFKMPRP	-0.217
RRIRQRPPRLPRPRPRPFKSPRP	-0.00197
RRIRQRPPRLPRPRPRPFLFPRP	-0.288
RRIRQRPPRLPRPRPRPFLYPRP	-0.615
RRIRQRPPRLPRPRPRPFMEPRP	0.212

Sequence	shrunken log2 fold change
RRIRQRPPRLPRPRPRPFNTPRP	-0.29
RRIRQRPPRLPRPRPRPFPNPRP	-0.0586
RRIRQRPPRLPRPRPRPFRIPRP	-0.0135
RRIRQRPPRLPRPRPRPFSMPRP	-0.0842
RRIRQRPPRLPRPRPRPFTKPRP	-0.0312
RRIRQRPPRLPRPRPRPFWGPRP	-0.0312
RRIRQRPPRLPRPRPRPFWKPRP	-0.0968
RRIRQRPPRLPRPRPRPFYAPRP	-0.0278
RRIRQRPPRLPRPRPRPGAFPRP	-0.158
RRIRQRPPRLPRPRPRPGCEPRP	0.0109
RRIRQRPPRLPRPRPRPGCFPRP	0.0403
RRIRQRPPRLPRPRPRPGDHPRP	-0.0718
RRIRQRPPRLPRPRPRPGEYPRP	-0.0469
RRIRQRPPRLPRPRPRPGFGPRP	0.245
RRIRQRPPRLPRPRPRPGGWPRP	0.45
RRIRQRPPRLPRPRPRPGHPPRP	0.0393
RRIRQRPPRLPRPRPRPGHSPRP	-0.00616
RRIRQRPPRLPRPRPRPGHVPRP	0.0119
RRIRQRPPRLPRPRPRPGHWPRP	0.0453
RRIRQRPPRLPRPRPRPGITPRP	-0.103
RRIRQRPPRLPRPRPRPGLIPRP	-0.118
RRIRQRPPRLPRPRPRPGMWPRP	0.191
RRIRQRPPRLPRPRPRPGNIPRP	-0.151
RRIRQRPPRLPRPRPRPGNMPRP	-0.0822
RRIRQRPPRLPRPRPRPGNVPRP	0.0829

Sequence	shrunken log2 fold change
RRIRQRPPRLPRPRPRPGPGPRP	0.507
RRIRQRPPRLPRPRPRPGPLPRP	-0.035
RRIRQRPPRLPRPRPRPGQDPRP	0.102
RRIRQRPPRLPRPRPRPGRAPRP	0.474
RRIRQRPPRLPRPRPRPGRNPRP	-0.0272
RRIRQRPPRLPRPRPRPGSDPRP	0.337
RRIRQRPPRLPRPRPRPGTEPRP	0.119
RRIRQRPPRLPRPRPRPGVVPRP	0.000417
RRIRQRPPRLPRPRPRPGWFPRP	0.209
RRIRQRPPRLPRPRPRPGWNPRP	-0.0526
RRIRQRPPRLPRPRPRPGYTPRP	-0.912
RRIRQRPPRLPRPRPRPHAKPRP	0.12
RRIRQRPPRLPRPRPRPHAWPRP	0.157
RRIRQRPPRLPRPRPRPHCPPRP	-0.0268
RRIRQRPPRLPRPRPRPHECPRP	-0.0866
RRIRQRPPRLPRPRPRPHGLPRP	-0.327
RRIRQRPPRLPRPRPRPHIAPRP	-0.142
RRIRQRPPRLPRPRPRPHISPRP	-0.312
RRIRQRPPRLPRPRPRPHLDPRP	-0.0359
RRIRQRPPRLPRPRPRPHLEPRP	-0.15
RRIRQRPPRLPRPRPRPHLFPRP	0.0199
RRIRQRPPRLPRPRPRPHMCPRP	-0.0238
RRIRQRPPRLPRPRPRPHMVPRP	-0.0317
RRIRQRPPRLPRPRPRPHNQPRP	-0.644
RRIRQRPPRLPRPRPRPHPDPRP	-0.0624

Sequence	shrunken log2 fold change
RRIRQRPPRLPRPRPRPHPEPRP	0.0615
RRIRQRPPRLPRPRPRPHPQPRP	0.24
RRIRQRPPRLPRPRPRPHRPPRP	0.0757
RRIRQRPPRLPRPRPRPHRQPRP	0.00471
RRIRQRPPRLPRPRPRPHRRPRP	-0.185
RRIRQRPPRLPRPRPRPHRSPRP	-0.00875
RRIRQRPPRLPRPRPRPHSKPRP	-0.328
RRIRQRPPRLPRPRPRPHTPPRP	-0.147
RRIRQRPPRLPRPRPRPHTTPRP	0.182
RRIRQRPPRLPRPRPRPHVKPRP	-0.274
RRIRQRPPRLPRPRPRPHWCPRP	0.1
RRIRQRPPRLPRPRPRPHWKPRP	-0.0878
RRIRQRPPRLPRPRPRPHWPPRP	-0.0715
RRIRQRPPRLPRPRPRPHWQPRP	-0.147
RRIRQRPPRLPRPRPRPHYWPRP	0.0403
RRIRQRPPRLPRPRPRPIAAPRP	0.269
RRIRQRPPRLPRPRPRPIAPPRP	4.03
RRIRQRPPRLPRPRPRPIDMPRP	0.00643
RRIRQRPPRLPRPRPRPIELPRP	-0.293
RRIRQRPPRLPRPRPRPIGTPRP	0.0722
RRIRQRPPRLPRPRPRPIGVPRP	-0.00783
RRIRQRPPRLPRPRPRPIHIPRP	-0.187
RRIRQRPPRLPRPRPRPIHTPRP	0.0773
RRIRQRPPRLPRPRPRPIISPRP	-0.189
RRIRQRPPRLPRPRPRPIIWPRP	0.0173

Sequence	shrunken log2 fold change
RRIRQRPPRLPRPRPRPIIYPRP	-0.858
RRIRQRPPRLPRPRPRPIKGPRP	-0.0145
RRIRQRPPRLPRPRPRPIKMPRP	-0.39
RRIRQRPPRLPRPRPRPIKWPRP	0.00957
RRIRQRPPRLPRPRPRPIKYPRP	0.00234
RRIRQRPPRLPRPRPRPINGPRP	-0.000925
RRIRQRPPRLPRPRPRPINPPRP	-0.357
RRIRQRPPRLPRPRPRPIPEPRP	0.0343
RRIRQRPPRLPRPRPRPIPHPRP	0.021
RRIRQRPPRLPRPRPRPISAPRP	-0.0212
RRIRQRPPRLPRPRPRPISWPRP	-0.12
RRIRQRPPRLPRPRPRPIVEPRP	0.0141
RRIRQRPPRLPRPRPRPIWLPRP	0.66
RRIRQRPPRLPRPRPRPIWTPRP	0.0198
RRIRQRPPRLPRPRPRPKALPRP	-0.0462
RRIRQRPPRLPRPRPRPKAQPRP	0.0112
RRIRQRPPRLPRPRPRPKARPRP	0.152
RRIRQRPPRLPRPRPRPKCHPRP	-0.0268
RRIRQRPPRLPRPRPRPKCIPRP	-0.0337
RRIRQRPPRLPRPRPRPKCKPRP	0.0386
RRIRQRPPRLPRPRPRPKCLPRP	0.0772
RRIRQRPPRLPRPRPRPKEFPRP	0.0639
RRIRQRPPRLPRPRPRPKFDPRP	-0.0817
RRIRQRPPRLPRPRPRPKFLPRP	-0.157
RRIRQRPPRLPRPRPRPKFQPRP	0.022

Sequence	shrunken log2 fold change
RRIRQRPPRLPRPRPRPKHGPRP	0.00489
RRIRQRPPRLPRPRPRPKHIPRP	-0.456
RRIRQRPPRLPRPRPRPKINPRP	-0.354
RRIRQRPPRLPRPRPRPKIQPRP	-0.0232
RRIRQRPPRLPRPRPRPKIVPRP	-0.113
RRIRQRPPRLPRPRPRPKKRPRP	0.107
RRIRQRPPRLPRPRPRPKLNPRP	-0.165
RRIRQRPPRLPRPRPRPKMDPRP	-0.111
RRIRQRPPRLPRPRPRPKNMPRP	-0.646
RRIRQRPPRLPRPRPRPKNQPRP	-0.214
RRIRQRPPRLPRPRPRPKNRPRP	0.0773
RRIRQRPPRLPRPRPRPKNYPRP	-0.216
RRIRQRPPRLPRPRPRPKQQPRP	-0.141
RRIRQRPPRLPRPRPRPKRTPRP	0.00512
RRIRQRPPRLPRPRPRPKSDPRP	-0.2
RRIRQRPPRLPRPRPRPKSRPRP	0.0336
RRIRQRPPRLPRPRPRPKVGPRP	0.011
RRIRQRPPRLPRPRPRPKVHPRP	-0.0859
RRIRQRPPRLPRPRPRPKVSPRP	-0.073
RRIRQRPPRLPRPRPRPKWAPRP	-0.0411
RRIRQRPPRLPRPRPRPKWWPRP	-0.0687
RRIRQRPPRLPRPRPRPLACPRP	-0.231
RRIRQRPPRLPRPRPRPLAYPRP	-0.0738
RRIRQRPPRLPRPRPRPLCAPRP	0.172
RRIRQRPPRLPRPRPRPLCHPRP	-0.142
